These results are taken from patent US20190100591A1 (ITEOS BELGIUM, published 2019).

Usually EC50 stands for the concentration needed to bring the measured effect to its halfway point. A lower EC50 goes with greater potency. Broadly, the Kd is the equilibrium constant for the complex coming apart. In general, IC50 refers to the concentration needed to halve the response being measured.

For assay [1], the target named is Polyspecificity Reagent (PSR). Nature of the assay: flow cytometry, IgG presented on yeast, biotinylated PSR, normalised MFI. On the technique in general: In flow cytometry, cells or beads pass a laser one at a time.
Assay [2] deals with T1, human TIGIT expressed on cells (human, UniProt Q495A1 22-244).
T1 construct: whole, on cells; on Jurkat E6.1 cells transduced with human TIGIT, on Promega TIGIT effector cells or on human primary T cells; the cell is named under assay; also called hTIGIT; Jurkat-hTIGIT
T1 sequence (looked up): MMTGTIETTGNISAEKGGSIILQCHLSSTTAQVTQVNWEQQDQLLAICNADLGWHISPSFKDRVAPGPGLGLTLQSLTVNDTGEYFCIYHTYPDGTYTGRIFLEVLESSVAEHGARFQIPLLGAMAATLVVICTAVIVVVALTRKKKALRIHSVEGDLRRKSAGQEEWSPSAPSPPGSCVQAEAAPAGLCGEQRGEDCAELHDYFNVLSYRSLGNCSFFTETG
Nature of the assay: flow cytometry, Jurkat-hTIGIT, MFI. The protocol:
Antibodies were incubated with the cells for 20 min at 4° C. in FACS buffer. […] Fluorescence intensity was analysed using LSR BD Fortessa and cell binding was recorded as the median fluorescence intensity of PE in cells expressing TIGIT at their surface.
The half-maximal concentration of binding (EC50) to Jurkat-hTIGIT was calculated using a four-variable curve-fit equation in Prism.

The target in assay [3] is T2, recombinant human TIGIT protein (human, UniProt Q495A1 22-141, limits assumed).
T2 construct: also called hTIGIT (Creative Biomart); antigen
T2 sequence (looked up): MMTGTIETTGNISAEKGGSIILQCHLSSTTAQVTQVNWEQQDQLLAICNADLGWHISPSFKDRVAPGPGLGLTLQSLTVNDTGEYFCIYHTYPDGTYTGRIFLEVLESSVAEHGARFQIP
Nature of the assay: Biacore T200 SPR, IgG captured, steady state model. On the technique in general: In SPR one partner is held on a chip, and binding of the other changes the refractive index at the surface.

Assay [4] addresses T1, human TIGIT expressed on cells. Nature of the assay: flow cytometry, human primary CD8+ T cells (healthy PBMC), MFI on TIGIT+CD8+.
Assay [5] has the same target. Nature of the assay: flow cytometry, Jurkat-hTIGIT, MFI; end of the range tied to 313M32 by Table 16.
Assay [6] shares this target. Nature of the assay: FACS competition on Jurkat-hTIGIT; competitor CD155-His 15 ug/ml.
The target is the same in assay [7]. Nature of the assay: flow cytometry, CD8+ T cells from cancer patient PBMC, MFI on TIGIT+CD8+. How it is done:
Cells were distributed at 1×10^5 cells per well. […] Then, cells were washed and incubated with the following antibodies and life viability dye (LVD) mix: anti-CD4-PercP-Cy5.5 (clone A161A1, BioLegend 357414); anti-CD8-BV510 (clone SK1, BD Bioscience 563919) and LVD efluor 520 (eBioscience 65-0867-14). Cells were washed and fixed and surface staining was quantified using BD LSR Fortessa. Flow cytometry data was analysed using FlowJo V10.1. TIGIT MFI on gated LVD-TIGIT+CD8+ cells was used to calculate EC50 values.

Substitutions are numbered along the chain they refer to.

B1: anti-TIGIT antibody clone 26493 (antibody, V domains shown)
VH: EVQLVESGGGLVQPGRSLRLSCAASGFTFGDYAMHWVRQAPGKGLEWVSGITWNSGSIGYADSVKGRFTISRDNAKNSLYLQMNSLRAEDTALYYCAKPVPKSRGLDVWGQGTMVTVSS
VL: DIQLTQSPSSVSASVGDRVTITCRASQGISSWLAWYQQKPGKAPKLLIYGASSLQSGVPSRFSGSGSGTDFTLTISSLQPEDFATYYCQQAFYLPWTFGGGTKVEIK
Consider B1, for which the Polyspecificity Reagent (PSR) Score (0-1) in assay [1] is 0 score (0-1).

B2: anti-TIGIT antibody clone 29527 (antibody, V domains shown)
VH: QVQLVESGGGVVQPGRSLRLSCAASGFTFSSSYMHWVRQAPGKGLEWVAVIGADGSNKYYADSVEGRFTISRDNSKNTLYLQMNSLRAEDTALYYCAKPVPRRRGLDVWGQGTMVTVSS
VL: B1 VL
As for B2, the Polyspecificity Reagent (PSR) Score (0-1) in assay [1] was 0.12 score (0-1).

B3: anti-TIGIT antibody clone 29520 (antibody, V domains shown)
VH: B1 VH with E1Q, G30R, S57L, K102R, S103L
VL: B1 VL
Take B3: the Polyspecificity Reagent (PSR) Score (0-1) in assay [1] is 0.32 score (0-1).

B4: anti-TIGIT antibody clone 29523 (antibody, V domains shown)
VH: B2 VH with Q1E, S30G, S32Y, G52W, A53P, Y59L, E65K, R102K, R103S, G105A
VL: B1 VL
For B4, the Polyspecificity Reagent (PSR) Score (0-1) in assay [1] is 0.12 score (0-1).

B5: anti-TIGIT antibody 313M32 (antibody, V domains shown)
VH: QVQLQESGPGLVKPSETLSLTCAVSGYSITSDYAWNWIRQPPGKGLEWIGYISYSGSTSYNPSLRSRVTISRDTSKNQFFLKLSSVTAADTAVYYCARRQVGLGFAYWGQGTLVTVSS
VL: DIQMTQSPSSLSASVGDRVTITCKASQDVSTAVAWYQQKPGKAPKLLIYSASYRYTGVPSRFSGSGSGTDFTFTISSLQPEDIATYYCQQHYSTPWTFGGGTKVEIK
Regarding B5, in assay [2], the EC50 was determined as 0.44 nM and the “Fold change of EC50 over EC50 of best clone (31282_wu)” value came out at 4.2 fold. Besides, the Kd in assay [3] stood at 10.1 nM. In addition, in assay [4], the half-maximal effective concentration (EC50) was 1.45 nM and the “Fold change of EC50 over EC50 of best clone (31282_wu)” value stood at 7.5 fold. In assay [5], this molecule showed a concentration for a half-maximal effect (EC50) of 0.445 nM. In addition, in assay [6], the “Fold change of IC50 over IC50 of best clone (31282_up)” value was 16.7 fold and the 50% inhibitory concentration (IC50) came out at 0.65 nM. Also, in assay [7], the half-maximal effective concentration (EC50) is 1 nM and the “Fold change of EC50 over EC50 of best clone (31282)” value was determined as 8.3 fold.

B6: anti-TIGIT antibody clone 29513 (antibody, V domains shown)
VH: QVQLVQSGAEVKKPGSSVKVSCKASGGTFQNYAISWVRQAPGQGLEWMGVIVPIFGTANYAQKFQGRVTVTADESTSTAYMELSSLRSEDTAVYYCARLHLGQKAYYGMDVWGQGTTVTVSS
VL: DIQMTQSPSSLSASVGDRVTITCRASQSISSYLNWYQQKPGKAPKLLIYAASSLQSGVPSRFSGSGSGTDFTLTISSLQPEDFATYYCQQRYVFPPTFGGGTKVEIK
B6: the Polyspecificity Reagent (PSR) Score (0-1) in assay [1] was 0.01 score (0-1).

B7: anti-TIGIT antibody clone 26486 (antibody, V domains shown)
VH: QVQLQESGPGLVKPSETLSLTCAVSGYSISSGYYWAWIRQPPGKGLEWIGSIYHSGSTYYNPSLKSRVTISVDTSKNQFSLKLSSVTAADTAVYYCAIEGANYYDFGYVAFDIWGQGTMVTVSS
VL: EIVMTQSPATLSVSPGERATLSCRASQSVSSNLAWYQQKPGQAPRLLIYGASTRATGIPARFSGSGSGTEFTLTISSLQSEDFAVYYCQQSPPWPRTFGGGTKVEIK
For B7, in assay [1], the Polyspecificity Reagent (PSR) Score (0-1) was 0 score (0-1).

B8: anti-TIGIT antibody clone 31288 (antibody, V domains shown)
VH: QLQLQESGPGLVKPSETLSLTCTVSGGSISSGSYYLAWIRQPPGKGLEWIGSIFRSGSTYYNPSLESRVTISVDTSKNQFSLKLSSVTAADTAVYYCAIEGANFKDFGYVAFDIWGQGTTVTVSS
VL: B7 VL
Turning to B8, in assay [1], the Polyspecificity Reagent (PSR) Score (0-1) is 0 score (0-1).

B9: anti-TIGIT antibody clone 29499 (antibody, V domains shown)
VH: B8 VH with G32S, S33R, L36W, F54G, R55T, E66K, A90T, K105R, T120M
VL: B7 VL
On to B9, for which the Polyspecificity Reagent (PSR) Score (0-1) in assay [1] is 0.1 score (0-1).

B10: anti-TIGIT antibody clone 32931 (antibody, V domains shown)
VH: B8 VH
VL: B7 VL with Q27K, G50F, S91T, P92S
B10: in assay [1], the Polyspecificity Reagent (PSR) Score (0-1) is 0 score (0-1).

B11: anti-TIGIT antibody clone 29494 (antibody, V domains shown)
VH: B8 VH with L2V, T120M
VL: B7 VL
As to B11, the Polyspecificity Reagent (PSR) Score (0-1) in assay [1] was 0 score (0-1).
